Measured values taken from patent US6838262.

Molecular target: human RANK, full length, expressed in or on cells (human) (UniProt Q9Y6Q6)
Assay: cell-based or functional assay

Sequence of UniProt Q9Y6Q6 (Q9Y6Q6 26-616): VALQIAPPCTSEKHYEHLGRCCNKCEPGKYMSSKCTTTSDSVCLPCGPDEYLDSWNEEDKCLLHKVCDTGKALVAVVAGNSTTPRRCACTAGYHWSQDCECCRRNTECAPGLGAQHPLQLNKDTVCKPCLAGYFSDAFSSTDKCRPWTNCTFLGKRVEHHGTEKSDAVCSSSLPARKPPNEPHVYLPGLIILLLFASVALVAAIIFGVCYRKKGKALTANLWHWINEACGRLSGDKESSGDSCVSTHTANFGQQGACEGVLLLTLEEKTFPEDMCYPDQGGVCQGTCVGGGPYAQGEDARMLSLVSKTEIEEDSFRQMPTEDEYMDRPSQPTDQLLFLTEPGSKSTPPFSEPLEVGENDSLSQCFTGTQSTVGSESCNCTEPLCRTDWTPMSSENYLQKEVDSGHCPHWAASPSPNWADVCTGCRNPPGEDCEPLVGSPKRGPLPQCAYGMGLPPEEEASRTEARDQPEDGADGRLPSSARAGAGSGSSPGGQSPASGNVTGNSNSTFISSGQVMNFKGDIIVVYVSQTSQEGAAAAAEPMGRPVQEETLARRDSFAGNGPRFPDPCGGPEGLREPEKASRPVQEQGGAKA

RANKL as added to human dendritic cell cultures (Example 13; species and construct not stated) (ligand)
allo-stimulatory capacity of CD1a+ DC in a mixed lymphocyte reaction (MLR): > 10 fold
